Reference: PMC5815892 (Clinical cancer research : an official journal of the …, 2017)

Columns and labels:
[1] = target: T1, free DSL-like peptide from human fibulin-3 (Thr25-Glu47) (Homo sapiens (Human).); test: ELISA
T1 chain: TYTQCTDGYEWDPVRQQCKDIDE

[2] = target: purified fibulin-3 (human) (Homo sapiens (Human)., UniProt Q12805); test: SPR
Chain of purified fibulin-3 (human) (Q12805 18-493): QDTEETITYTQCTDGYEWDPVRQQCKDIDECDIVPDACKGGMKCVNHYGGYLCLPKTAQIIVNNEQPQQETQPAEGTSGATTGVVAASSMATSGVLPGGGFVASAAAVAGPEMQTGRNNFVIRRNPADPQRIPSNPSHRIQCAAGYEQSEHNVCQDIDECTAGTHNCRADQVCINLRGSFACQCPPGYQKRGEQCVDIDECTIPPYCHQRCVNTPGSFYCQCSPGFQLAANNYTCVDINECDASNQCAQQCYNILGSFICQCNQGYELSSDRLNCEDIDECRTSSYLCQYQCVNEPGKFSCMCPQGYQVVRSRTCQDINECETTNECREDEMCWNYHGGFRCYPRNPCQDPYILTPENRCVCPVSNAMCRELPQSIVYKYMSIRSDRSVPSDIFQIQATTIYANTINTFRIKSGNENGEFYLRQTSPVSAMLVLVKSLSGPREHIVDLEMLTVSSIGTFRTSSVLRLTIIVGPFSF

B1: mAb428.2 (anti-fibulin-3 clone mAb428.2.3C11.H11.G3) (antibody, V domains shown)
VH: QIQLVQSGPELKKPGETVKISCKASGYSFTTYGMSWVKQAPGKGLKWMGWINTYSGVPTYADDFKGRFAFFLETSASTAYLQINNLKNEDTATYFCARWVDYWGQGTTLTVSS
VL: DIKMTQSPSSMYASLGERVTITCKASQDIKSYLSWHQQKPWKSPKTLIYYATSLADGVPSRFSGSGSGQDYSLTISSLESDDTATYYCLQHGKSPYTFGGGTKLEIK
- binding result [1]: binds
- Kd [2]: 5 ± 1 nM
